From paper PMC8052441, “Structural insight into the molecular mechanism of p53-mediated mitochondrial apoptosis” (Nature Communications, 2021)

Tests used:
[1] = molecular target: T1, p53-DBD (human p53 DNA-binding domain, amino acids 92-292) (human, UniProt P04637 92-292); test: ITC; p53 protein (100 µM) titrated into 10–30 µM BCL-xL or BCL-2; 25 °C; 50 mM Tris pH 7.0, 40 mM NaCl, 1 mM TCEP; details: both partners purified
T1 construct: Cloned into pMAL-c5x; In the crystal (PDB 6LHD) this stretch stood fused to BCL-xL; the rows of the structure use m1 and m3 for the two halves; also called p53-A; p53-B; source: E. coli BL21 (DE3), purified (amylose, PreScission, Mono S)

[2] = molecular target: T2, p53-DT (human p53 DBD and tetramerization domain, amino acids 92-360) (human, UniProt P04637 92-360); test: as above; details: both partners purified
T2 construct: human p53, DBD and tetramerization domain, amino acids 92-360; Tetramer in solution by gel filtration and cross-linking; also called wild-type p53-DT; not shown: His6, N-terminal, cleaved
T2 sequence (P04637 92-360): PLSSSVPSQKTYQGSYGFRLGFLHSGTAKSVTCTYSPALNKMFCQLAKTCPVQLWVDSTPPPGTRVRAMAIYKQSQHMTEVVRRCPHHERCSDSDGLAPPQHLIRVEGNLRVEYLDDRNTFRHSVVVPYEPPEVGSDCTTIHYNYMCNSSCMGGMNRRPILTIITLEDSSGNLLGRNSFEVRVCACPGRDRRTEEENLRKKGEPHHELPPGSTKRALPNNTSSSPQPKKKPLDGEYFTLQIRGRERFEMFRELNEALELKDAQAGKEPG

T1 sequence (P04637 92-292): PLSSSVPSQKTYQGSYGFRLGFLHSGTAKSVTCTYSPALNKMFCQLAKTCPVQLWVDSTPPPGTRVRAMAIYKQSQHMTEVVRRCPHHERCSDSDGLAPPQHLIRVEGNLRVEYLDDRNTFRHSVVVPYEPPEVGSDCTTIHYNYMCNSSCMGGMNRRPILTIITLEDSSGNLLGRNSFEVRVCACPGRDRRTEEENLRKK

B1: BCL-xL (human, lacking the α1-α2 loop 45-84 and the 22 C-terminal residues), His-tagged (domain or fragment, UniProt Q07817-1 1-211, looked up)
chain: MSQSNRELVVDFLSYKLSQKGYSWSQFSDVEENRTEAPEGTESEAVKQALREAGDEFELRYRRAFSDLTSQLHITPGTAYQSFEQVVNELFRDGVNWGRIVAFFSFGGALCVESVDKEMQVLVSRIAAWMATYLNDHLEPWIQENGGWDTFVELYGNNAAAESRKGQERFN
notes: human BCL-xL lacking the disordered α1-α2 loop (amino acids 45-84) and the 22 C-terminal residues (transmembrane region); Cloned into pET-28a; also called BCL-xL-C; BCL-xL-D
Kd [1]: 37.4 µM
Kd [2]: 4.1 µM
